According to paper PMC6284806 (Nanotechnology, 2015):

Biological target: the molecule itself
Assay: AUC

B1: Horse spleen apoferritin (natural protein, UniProt P02791 1-175, looked up)
chain: MSSQIRQNYSTEVEAAVNRLVNLYLRASYTYLSLGFYFDRDDVALEGVCHFFRELAEEKREGAERLLKMQNQRGGRALFQDLQKPSQDEWGTTLDAMKAAIVLEKSLNQALLDLHALGSAQADPHLCDFLESHFLDEEVKLIKKMGDHLTNIQRLVGSQAGLGEYLFERLTLKHD
**Q.** With B1 as the protein, how does the “stoichiometry N” value read?
**A.** Its value is 24.
